Laboratory results reported in patent publication US20220233690A1.

Target: CD40 (human) (UniProt P25942)
Assay: cell-based or functional assay

Chain of UniProt P25942 (P25942 21-277): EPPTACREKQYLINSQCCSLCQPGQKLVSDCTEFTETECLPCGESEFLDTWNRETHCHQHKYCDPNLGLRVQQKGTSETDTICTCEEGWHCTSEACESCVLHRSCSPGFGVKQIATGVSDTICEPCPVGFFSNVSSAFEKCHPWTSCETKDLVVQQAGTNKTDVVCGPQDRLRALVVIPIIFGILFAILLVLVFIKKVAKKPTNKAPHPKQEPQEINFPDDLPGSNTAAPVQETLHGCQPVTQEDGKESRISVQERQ

- T cell activation (percentage of live CD2+CD16-CD8+ cells expressing CD25) (% below CD20×CD3 (REGN1979) alone): 35
Substance: Anti-CD40 antibody (IgG1 mutant, REGN3794)
